Source: patent US9217036

Target: full-length mouse PrP, cellular prion protein PrP^c (mouse) (UniProt P04925)
Sequence (P04925 23-230 limits assumed): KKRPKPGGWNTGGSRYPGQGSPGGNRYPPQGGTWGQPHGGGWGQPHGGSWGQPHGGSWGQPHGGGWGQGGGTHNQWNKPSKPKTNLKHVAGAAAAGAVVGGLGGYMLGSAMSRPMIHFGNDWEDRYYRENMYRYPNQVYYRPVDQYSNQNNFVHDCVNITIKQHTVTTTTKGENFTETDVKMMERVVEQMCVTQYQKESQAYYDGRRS

Q: For 6D11 anti-PrP mouse monoclonal antibody, which IC50 is on record?
A: 1 nM
